Measured values reported in article PMC7025507.

Target: hStau1^55 SSM/RBD5 construct (human)
Test: SEC

hStau1^55 SSM/RBD5 construct (domain or fragment)
stoichiometry N: 2
